Assay results taken from the DeepSol protein solubility set.

test: soluble on expression in E. coli; label from the status in PepcDB or PDB records

Row | Sequence | soluble on expression in E. coli
1 | MTLPSSCAPLTGISRARLPAWALPDGWPTQANGEPLLADLAFRDGRIAALTPTDQPTPGLWDLAGALTLPGLVEPHAHLDKTFTIERCRPAQAGLLPAIHAMHEDRRHWSRADIQRRASAALARAAANGVTHLRSHIDWFNADAPDAWQEIARLDTVGITLERVALVPLPLFRELAQAEAIARTVANSGERCLLGGFIHSSNWDATAMENLLYSAARWDLDLDLHIDEELSEVSQGLTWLADHLSRHPFPGHICCSHGCALAAGSDEQAAPILRQLAAHGVTLIALPMTNLLLQDATFGRTPRQRGITLLHEAQAAGVATLLGCDNVQDAFCPAGSYDPLDTLACGLFSAQLSDLFDQQSRLICDRAALTGSPADAAPFAVGAAASVVIFPGSDRFTWPLNSAARLVVNHGRLTHRRVWQEEMAHES | not soluble
2 | MTLRCSDVNVEPLPGTAKTGSGFVLLEHAGSWSRDVLDGGTFDPELTDQLKRHLKASGMGLQLIRKPGREGRNVEKHNLFLVFAEASIIEHLVVDAPADVLDLDLSGPGKNNAQRMDDPMLLICTHSKRDVCCAIKGRPLAAAVEPQFGPLHVWEASHTKGHRFAPSMLLMPWNYSYGLLDEAETVQLFQGALDNKLFLPGNRGRGTLDARGQVAEIAVAEAFGEAVAPASLQVEFEDDSVLVTHPDGRTWVVELERIEVDGVVSSCGDQPKTGKAWVARQVTELIG | not soluble
3 | MTLTTTLTTGLALLLAAQALPAPASAAPAAVGSVTIGWADATHELIKITWTETTAAANTLTLHTDDPETAAVRFGTTTADQPNEYLVDPTQLGYTADPRHTSWILVSDGTATTARSVDFDRFHHAQRGAALSFAGDRVRWTAPADTSVDGTPGDPLDLPKAYTYQPMQRVDDDPVGNYECKDTELPATTERTGLVPNPGTAYDLFLTMTNEWGTADVGYLQVGTTQTVTADGPAATAYGATTTIKGHAEGTVMFEQGRPPVCDEVRVDLSNQPLTVQQRTSSTAPWTVVGTVRTTVNGDYTAVVKNPGHRQYRVVRPNTAAFESAWYGGTSGVITVRSLTRVVSAKFIQPVVRLGTRPQAYLWVDPAGTQKAALQFRNAAGAWQGVTYKTLYAGRGLVSFPWNRRGTTRFRWWVPASGGAESVVSPVFTVTVT | not soluble
4 | MTLYSFRLGLLLFCSLLFGCTAPTPAPVSGLGKDYNKVERGSYRGSYYEVKKGDTLYFIAYLTDKDVNDLISYNDLAPPYTIHPGQKIKLWLPNYTPPAYGGTGGAATVAVASSTSASVAKAATTATVAQTVSKSSNTKNVQNGSTNSQNLTKKDPVKTVDQTKTKEYVEPVGKQNVNVNVAKAKPSDEKIAKWLWPTKGRVIKNFSAGDQGNKGIDIAGQRGQAVVATADGTVVYSGNALRGYGNLIIIKHNEHYLSAYAHNDQLLAKEGQTVQAGQKIATMGSSGTNSVRLHFEIRYQGKSVNPKRYLP | not soluble
5 | MTMDTAQLKSQIQQYLVESGNYELISNELKARLLQEGWVDKVKDLTKSEMNINESTNFTQILSTVEPKALEMVSDSTRETVLKQIREFLEEIVDTQ | soluble
6 | MTNFKDNDGDGTKLHVVMFPWLAFGHMVPYLELSKLIAQKGHKVSFISTPRNIDRLLPWLPENLSSVINFVKLSLPVGDNKLPEDGEATTDVPFELIPYLKIAYDGLKVPVTEFLESSKPDWVLQDFAGFWLPPISRRLGIKTGFFSAFNGATLGILKPPGFEEYRTSPADFMKPPKWVPFETSVAFKLFECRFIFKGFMAETTEGNVPDIHRVGGVIDGCDVIFVRSCYEYEAEWLGLTQELHRKPVIPVGVLPPKPDEKFEDTDTWLSVKKWLDSRKSKSIVYVAFGSEAKPSQTELNEIALGLELSGLPFFWVLKTRRGPWDTEPVELPEGFEERTADRGMVWRGWVEQLRTLSHDSIGLVLTHPGWGTIIEAIRFAKPMAMLVFVYDQGLNARVIEEKKIGYMIPRDETEGFFTKESVANSLRLVMVEEEGKVYRENVKEMKGVFGDMDRQDRYVDSFLEYLVTNR | soluble
7 | MTNFRPCFLIPCYNHGKTIPAVVESLMSYGYPMIIVDDGSENETKRILEEVTQHNESITLITLAENQGKGGAVIAGIEKAYQQSYSHAIQIDADGQHDLEALPKLIAESQEHPTALISGQPIYDESVPKSRLYGRYATHIWVWIETLSFTIKDSMCGFRSYPIGPTINVLERAVLGRRMDFDTEIMVRMYWNETDIRFINTRVIYPEDGISHFDALWDNVKISWMHTKLFFGMLPRIPSLLKRKPVQEDHWSSHAERGTILGIQFLLWIYSTFGRKVFSLLLKPVMAYYYLRGGSVKDASDDFIQQVNAYARIKGIQLPEKLTTYRHLVSFGETMLDKLAAWRGDFSDKNLTVHGIEHYQTLAQREKGIVLLGSHLGNLELCRALSRRHTHLKINALVFTEHAERFNTVMKTVNPQSEVNVIQVSKIGPDTAILLQQKIDDGEWIVIVGDRTSVTKENRVIWADFLGKPAPFPQGPFMLASILKQPVYLMFGLRDDTQKDPLFDVYLEPFSEQIILPRGKREEALQEVVQNYAQRLEHFTLKAPSQWYNFFNFWQLTGKKDDNLEHHHHHH | soluble
8 | MTNGIFKHSNQSILEDQDHVKKSTVEILMPAYVIGGPIRSIRVDKDRLFVLGMKNHPEVIDLTQMSHGTSLILEKIMSGNRYYTTQISMNQAAELCHVAHELKLVNLLKLVEMDMIRRPSTSMKHAVDALVLALKFGMLEAVNKLIDEIIFEFFNGLGLVGYCKSSTALEMIFDKNEMMLKEEIEVGRLNSEWNEPLPVGQEVVPSLPRGNNAQIPRIMLNVAKERIRSLVARPINSVKNGFAWISAQNLRRRGPRNHQDFPNFPD | not soluble
9 | MTNIFTPIEEALEAYKNGEFLIVMDDEDRENEGDLIMAAELITQEKMAFLVRYSSGYVCVPLSEERANQLELPPMLANRSDRHGTAYTITCDFAEGTTTGISAHDRALTTRSLANPNSKPQDFIKPGHILPLRAVPGLLKKRRGHTEAAVQLSTLAGLQPAGVICELVRDEDGLMMRLDDCIQFGKKHGIKIININQLVEYISK | soluble
10 | MTNITASIVLYNNPIDQIRQCIESMQADTRVHVLLVDNSEKKGGYTGLAADNVEILDAPGNVGFGRGHNLVLGRLAALRSEVHLVVNPDIVVSAGCVQAVADVLRQRKDVTLVGPRVVSPDGALYRSCKLLPTPWNLFARRFAPRQLYAAADARYELEAFGYDRELRLHNLSGAFLAFRSEAFTALGGFDPRYFMYLEDVDICRRAAGLGAVIFLPQAEVVHEHGKGSYRSWRLLREHMRSAILYFNRFGWFVDAERRLLNRETLARVNDMRSVVLEHHHHHH | not soluble
11 | MTNLEIEYKTLLTKNEYNRLLSQMKHVTPVTQTNYYIDTKAFDLKANKMSLRIRTFVNSAELTLKVPEKVGNREYNVPLFLEQAKDMIKHGNLPESTALDIIISKGIKPSALVTFGNLTTVRRETVIPIGKLALDYNLYANTKDYELELEVSDALQGKIDFDSFLSEYHITFKYAKSKVARCINTLKKFNDK | not soluble
12 | MTNLMSALSKLSQALDSKNIGEVLLALQNFDEEFSAEKCEDVFVRCLQEIISWDLTVSLEISETVVRQMMNRLENQAVLEEMCNYIIKQQSSVTVEIAVEIMIEHGWILRTDDCREVWKQIESAKNTEKIEILARRMTANCRILRLSGAPKRFLEKLLKDVIISLNANKVNIPMKFLNELAIVSPFHPILVIEDFKKDSEYFYIPHVVSEETRFHLEVKEFTNFFQIESTYHKEQACQMLQVFNQIYKRMELIPQLEAPEIDKIVEFWLAALRIFNGYGIGMNDITESAKLLEKTASRYSLKSRPLFLKHFLKKISEKKDTNIGLEPQVVATIITTYQRNAFGLRSPEFYEELGEFWALCLKIKYDDVYFATVYFSAVFALAQAQAVFKIKKELCREVYHKILQPMHEQLVDFVKLKQVESNKATSEEEVMRLEHQNIGASYFSILTCTYKNAEDRILEFMKEN | not soluble
13 | MTNLTLDVNIIDFPSIPVAMLPHRCSPELLNYSVAKFIMWRKETGLSPVNQSQTFGVAWDAPATTAPEAFRFDICGSVSEPIPDNRYGVSNGELTGGRYAVARHVGELDDISHTIWGIIRHWLPASGEKMRKAPILFHYTNLAEGVTEQRLETDVYVPLA | not soluble
14 | MTNPGDGAAGAVDCATLDHWRPRLAAIAAAAGQDDAAHDLGHLRRVWGAARAMLQAHPEADALVVLAASYLHDLVNLPKNHPERHLASRQAAAAARERLARAGFPAARLDAVAHAIEAHSFSAGIAPRTIEARIVQDADRLDALGPVGLARMFHVGGSLGRALAHPSDPLAAQRALDDSRYTLDHIEAKLARLPHGMQTEAGRRLGEQRLAWLRDFRAAFAAQWGGGQLRLEHHHHHH | soluble
15 | MTNQNVLLNISGVKFVLRIPNAVNLSLINREYEAFNNAQAYRAGLNVETPVLDAKSGVKLTRYLENSNTLSQIQLNEQSCLSQVVNNLYRLHNSEFVFRNVFSVFDEFRQYFSLLENKSAFYQADSRMDKLSAVFWQFEEINKEVILRPCHNDLVPENMLLQDDRLFFIDWEYSGLNDPLFDIATIIEEAHLSKEAADFLLETYCNQTNKYHKTEFQIAHKRLKIHRFCQNVLWFLWTKVKEEHGENFGDYALKRLDAAFKLLEELPLEHHHHHH | not soluble
16 | MTNVLYQHGTLGTLMAGLLEGTATINELLEHGNLGIATLTGSDGEVIFLDGKAYHANEHKEFIELKGDEKVPYASITNFKASKTFPLQQLSQDDVFAQIKNEMLSENLFSAVKIYGTFKHMHVRMMPAQQPPYTRLIDSARRQPEEKRQDIRGAIVGFFTPELFHGVGSAGFHIHFADDERAYGGHVLDFEVDDVVVEIQNFETFQQHFPVNNETFVKAKIDYKDVAEEIREAE | soluble
17 | MTPTTTPVSNPDALSTGTQDVHTLKGTLQRLAPGTPLRDGLDRIVRGHTGALIVIGDDENVSSICDGGFEFDVSFAATRLRELCKMDGAVILSSDLERIKRANVQLLPSPTWPTQESGTRHRSAERTALHTGVPVIAVSESQNTITLYVEGKSHMLEQPAALLNRANQALGTMERYRDRLDQVNNRLHLAELHSYVTVIDVVSVIQREEMLRRVGEIIDGDVLELGKDAKEIQIQLSELRGDNDRERESIIADYLVTDGIPADEEIHAALEAISHLDDKALLNPANIARVLGLPPTEEALDEPVTPRGYRTLNRIPRVQKFLMDKLIVEFGNLDALLNASVEDLSAVDGVGSLWARHITDGLGRLS | not soluble
18 | MTQPPASTSGIMGTLSSWNLKILQINQLHLVHWNAVKFENFEDAALEENGLAVIGVFLKISETSGSPVSTGRPKPLARKLRPAQKHWVLQSRPFLSSQVQENCKVTYFHRKHWVRIRPLRTTPPSWDYTRICIQREMVPARIRVLREMVPEAWRCFPNRLPLLSNIRPDFSKAPLAYVKRWLWTARHPHSLSAAW | soluble
19 | MTQTLLAIENLSVGFRHQQTVRTVVNDVSLQIEAGETLALVGESGSGKSVTALSILRLLPSPPVEYLSGDIRFHGESLLHASDQTLRGVRGNKIAMIFQEPMVSLNPLHTLEKQLYEVLSLHRGMRREAARGEILNCLDRVGIRQAAKRLTDYPHQLSGGERQRVMIAMALLTRPELLIADEPTTALDVSVQAQILQLLRELQGELNMGMLFITHNLSIVRKLAHRVAVMQNGRCVEQNYAATLFASPTHPYTQKLLNSEPSGDPVPLPEPASTLLDVEQLQVAFPIRKGILKRIVDHNVVVKNISFTLRAGETLGLVGESGSGKSTTGLALLRLINSQGSIIFDGQPLQNLNRRQLLPIRHRIQVVFQDPNSSLNPRLNVLQIIEEGLRVHQPTLSAAQREQQVIAVMHEVGLDPETRHRYPAEFSGGQRQRIAIARALILKPSLIILDEPTSSLDKTVQAQILTLLKSLQQKHQLAYLFISHDLHVVRALCHQVIILRQGEVVEQGPCARVFATPQQEYTRQLLALS | not soluble
